{"source": "patent US20050282740", "biological_target": "GST-WW-domain of Pin1 (UniProt Q13526)", "sequence (Q13526 1-54)": "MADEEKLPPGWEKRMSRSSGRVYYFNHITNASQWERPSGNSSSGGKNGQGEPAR"}
{"substance": "Cdc25C synthesized in vitro and phosphorylated by Xenopus mitotic extracts", "values": [{"measurement": "dephosphorylation of precipitated Cdc25C by CIP", "value": "CIP failed to dephosphorylate Cdc25C"}]}
